Laboratory results taken from publication PMC6769641.

Columns and labels:
[1] = target: catalase from sweet pepper (Capsicum annuum L.) fruits (Capsicum annuum (endogenous in sweet pepper fruits)) (UniProt Q9M5L6); experiment: native gel or EMSA; Hedrick and Smith method: non-denaturing PAGE at 5-7% acrylamide, catalase activity staining in gels; BSA monomer, dimer, trimer and tetramer as molecular weight standards
[2] = target: catalase from sweet pepper (Capsicum annuum L.) fruits (Capsicum annuum (endogenous in sweet pepper fruits)) (UniProt Q9M5L6); experiment: SEC; FPLC gel filtration on Superose 12 in 50 mM Tris-HCl, pH 8.0; ammonium sulfate fraction (20-80%) of green pepper fruit extract; catalase activity followed in fractions; column calibrated with rubisco, ferritin, aldolase, phosphorylase b and myoglobin

- stoichiometry N [1]: 2
- stoichiometry N [2]: 2
Substance: catalase from sweet pepper (Capsicum annuum L.) fruits (from UniProt Q9M5L6 1-492) (enzyme)
